Measured values from PMC9870165, “Structure and neutralization mechanism of a human antibody targeting a complex Epitope on Zika virus” (PLOS Pathogens, 2023).

B1: G9E Fab (antigen binding fragment of human monoclonal antibody G9E, wild type) (Fab, V domains shown)
VH: RVHLVESGGGVVQPGRSLRLSCVASGFAFSNYHMHWVRQAPGKGLEWVAIIWDDGSDQYYADSVKGRFTISRDNSKNTLFLQMNRLRAEDTALYYCVGGSSAYNGDNGWREAASLDDWGQGTLVTVSS
VL: QSALTQPASVSGSPGQSITIFCSGSSNDVGGYNYVSWYQQYPGKVPKLLIYDVNSRPSGVSNRFSGSKSGNTASLTISGLQAEDEADYYCSSYTSRRTWVFGGGTIVTVL
notes: also called Fab G9E; G9E WT
B2: HuZV-67, humanized version of the ZIKV specific mouse EDIII mAb ZV-67, IgG1 format (antibody, V domains shown)
VH: QAQLQQSGTGLARPGASVKLSCKASGYTFTSYGISWVTQRAGQGLEWIGVIYPRSGNTYYNEKFRGKATLTADKSSSSAYMELRGLTAEDSAVYFCARENYGSVYWGQGTTLTVSS
VL: DIVMTQSQKFMSTSVGDRVSITCKASQNVGTAVAWYQQKPGQSPKLLIYSASNRYTGVPDRFTGSGSGTDFTLTISNMQSEDLADYFCQQFSSYPYTFGGGTKLEIK
notes: IgG1; source: Expi293, purified (MabSelect resin)

How the values were obtained:
[1] = target: T1, recombinant ZIKV E protein (ectodomain of Zika virus envelope glycoprotein E) (Zika virus; PDB 8DV6 source …); assay: crystal structure; recombinant ZIKV E and G9E Fab mixed 1:1.2 at room temperature for 30 min, complex purified on Superdex 200-increase; crystals in 100 mM HEPES pH 7.5, 10% (w/v) PEG 8000; 3.4 Å; conditions: both partners purified
T1 construct: also called soluble E; E-dimer

[2] = target: T2, ZIKV E protein on wild-type Zika virus H/PF/2013 in culture supernatant (Zika virus strain H/PF/2013, UniProt A0A024B7W1); assay: ELISA; ZIKV capture ELISA: virus (WT or rZIKV-D67N) in culture supernatant captured by plate-bound mAb 4G2; mAbs added 1 h at 37°C; anti-human Fc alkaline phosphatase; signal normalized to ZKA-190; conditions: one partner purified
T2 construct: also called WT ZIKV; ZIKV H/PF/2013; source: ZIKV in culture supernatant

Binder | binding result [1] | binding result [2]
B1 | binds | –
B2 | – | binds
